Experimental data: paper PMC3174058 (Biochemical Journal, 2011)
Where “and” joins values, the source holds several entries; their conditions need not be identical. Equal entries are not always repeated.

Tests used:
15N-labelled SOUL = experiment: 15N-1H HSQC NMR titration of 15N-labelled SOUL with haemin; format: binding, human; conditions: 0.5, 1, 2, 3 and 4 equivalents haemin, Tris/HCl buffer, 25 °C; more than 1 day of observation
[1] = UV–visible spectrum of haemin alone; format: physicochemical; conditions: 10 μM haemin; 20 mM Tris/HCl (pH 7.5), 0.15 M NaCl; 30 min, 25 °C
Recombinant mouse SOUL = conditions: printed as range in words; ref [19] Sato et al., 2004; cited from earlier work
[2] = biological target: human Bcl-xL lacking only the C-terminal transmembrane domain (after amino acid 209) (human, UniProt Q07817-1 1-209); experiment: NMR titration
caspase 8 = caspase 8 cleavage experiment; format: biochemical; conditions: human BID as control; results not shown
[3] = test system: mitochondrial permeability transition / cell death; conditions: cited from earlier work

Sequence of human Bcl-xL lacking only the C-terminal transmembrane domain (after amino acid 209) (Q07817 1-209): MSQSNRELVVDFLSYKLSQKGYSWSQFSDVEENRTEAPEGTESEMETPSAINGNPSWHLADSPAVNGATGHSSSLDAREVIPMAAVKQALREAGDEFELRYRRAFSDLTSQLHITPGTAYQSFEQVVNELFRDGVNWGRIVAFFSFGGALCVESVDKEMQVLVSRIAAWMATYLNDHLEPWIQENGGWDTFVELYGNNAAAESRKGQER

Molecule: C=CC1=C(C)c2cc3[n-]c(cc4nc(cc5[n-]c(cc1n2)c(C)c5C=C)C(C)=C4CCC(=O)O)c(CCC(=O)O)c3C.[Cl-].[Fe+3] [haemin]
- change of SOUL HSQC spectrum with haemin (15N-labelled SOUL): the spectrum remained unaltered
- haemin absorption peak position, haemin alone [1]: 390 nM

Molecule: C=CC1=C(C)c2cc3[n-]c(cc4[n-]c(cc5nc(cc1n2)C(C)=C5C=C)c(C)c4CCC(=O)O)c(CCC(=O)O)c3C.[Fe+2] [haem]
- dissociation constant for haem binding (Recombinant mouse SOUL): nanomolar range

Molecule: SAQKNQEQLLTLASILREDGKVFDEK [SOUL BH3 peptide (26-amino-acid-long peptide spanning residues 147–172 of human SOUL)]
- Kd [2]: 47.8 µM and 41.3 µM

B1: SOUL: human SOUL protein, recombinant, expressed in E. coli, histidine tag removed by thrombin (protein)
chain: MAEPLQPDPGAAEDAAAQAVETPGWKAPEDAGPQPGSYEIRHYGPAKWVSTSVESMDWDSAIQTGFTKLNSYIQGKNEKEMKIKMTAPVTSYVEPGSGPFSESTITISLYIPSEQQFDPPRPLESDVFIEDRAEMTVFVRSFDGFSSAQKNQEQLLTLASILREDGKVFDEKVYYTAGYNSPVKLLNRNNEVWLIQKNEPTKENE
modifications: left off: His tag, C-terminal, cleaved
- cleavage by caspase 8 (caspase 8): is not a substrate of this enzyme
- effect of deletion of putative BH3 domain on apoptotic effects ([3]; human SOUL, BH3 domain deleted, ref [21] Szigeti et al., 2010): abolished the apoptotic effects of SOUL
- induction of MPT ([3]; leads to mitochondrial swelling and cell death, ref [20] Szigeti et al., 2006): can induce the MPT
